Target: the molecule itself
Test: SEC

B1: Bacillus subtilis m1A22 tRNA methyltransferase TrmK (wild type) (enzyme, UniProt P54471 1-238, looked up)
chain: MNELKLSKRLQTVAEYIPNGAVMADIGSDHAYLPCYAVLNHKASGAIAGEITDGPFLSAKRQVEKSGLNSHISVRQGDGLEVIKKGEADAITIAGMGGALIAHILEAGKDKLTGKERLILQPNIHAVHIREWLYKERYALIDEVILEEDGKCYEVLVAEAGDRDAAYDGISLSAGMLVGPFLAKEKNAVFLKKWTQELQHTQSIYEQISQAADTEQNKQKLKELADRMELLKEVIDHG
binding result: binds

— publication PMC6511850 (Nucleic Acids Research, 2019)
